For this assay, the target named is human VEGF165 (non-biotinylated) (human) (UniProt P15692). In words: cell-based or functional assay.

Where only a bound is given, the exact number is not on record here.

Sequence of human VEGF165 (non-biotinylated) (human) (P15692 other isoform, or with tags, fused parts or gaps): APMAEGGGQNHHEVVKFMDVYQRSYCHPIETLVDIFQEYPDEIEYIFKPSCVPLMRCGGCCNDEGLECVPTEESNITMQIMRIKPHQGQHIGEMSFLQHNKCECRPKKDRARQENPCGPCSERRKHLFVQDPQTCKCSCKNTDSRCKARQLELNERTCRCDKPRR

Substance EYLEA (aflibercept) (Fc fusion) displayed a maximal inhibition of VEGF-stimulated proliferation of under 80%.
